Measured values: publication PMC9482650, “Quantitative fragmentomics allow affinity mapping of interactomes” (Nature Communications, 2022)

T1: PDZD7_3, Q9H5P4
T1 sequence (Q9H5P4 857-944, limits assumed, looked up): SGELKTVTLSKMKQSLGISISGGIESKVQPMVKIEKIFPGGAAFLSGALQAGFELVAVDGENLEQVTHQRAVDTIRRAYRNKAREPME

T2: SHANK1, Q9Y566
T2 sequence (Q9Y566 658-767, limits assumed, looked up): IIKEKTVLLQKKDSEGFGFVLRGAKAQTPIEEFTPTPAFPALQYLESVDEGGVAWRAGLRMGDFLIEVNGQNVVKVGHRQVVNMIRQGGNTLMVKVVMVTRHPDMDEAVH

T3: CARD11, Q9BXL7
T3 sequence (Q9BXL7 662-765, limits assumed, looked up): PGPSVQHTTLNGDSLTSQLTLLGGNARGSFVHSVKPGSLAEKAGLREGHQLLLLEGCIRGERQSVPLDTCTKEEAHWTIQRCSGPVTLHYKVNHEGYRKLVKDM

T4: LNX2_2, Q8N448
T4 sequence (Q8N448 334-432, limits assumed, looked up): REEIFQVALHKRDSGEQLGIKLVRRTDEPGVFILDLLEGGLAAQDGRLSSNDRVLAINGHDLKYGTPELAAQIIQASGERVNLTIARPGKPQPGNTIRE

T5: MPP2, Q14168
T5 sequence (Q14168 180-250, limits assumed, looked up): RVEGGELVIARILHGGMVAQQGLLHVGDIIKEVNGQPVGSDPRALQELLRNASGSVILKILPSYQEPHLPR

T6: MPDZ_12, O75970
T6 sequence (O75970 1857-1958, limits assumed, looked up): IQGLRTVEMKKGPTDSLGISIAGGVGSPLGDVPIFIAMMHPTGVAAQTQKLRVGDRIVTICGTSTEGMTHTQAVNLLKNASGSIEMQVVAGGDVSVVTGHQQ

T7: DLG3_3, Q92796
T7 sequence (Q92796 374-475, limits assumed, looked up): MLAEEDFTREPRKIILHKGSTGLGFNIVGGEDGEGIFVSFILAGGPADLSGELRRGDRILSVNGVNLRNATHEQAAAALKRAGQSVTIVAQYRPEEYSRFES

T8: TJP3_3, O95049
T8 sequence (O95049 375-456, limits assumed, looked up): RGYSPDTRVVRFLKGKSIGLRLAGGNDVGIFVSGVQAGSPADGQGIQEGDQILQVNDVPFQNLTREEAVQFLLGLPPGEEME

T9: APBA2_2, Q99767
T9 sequence (Q99767 654-744, limits assumed, looked up): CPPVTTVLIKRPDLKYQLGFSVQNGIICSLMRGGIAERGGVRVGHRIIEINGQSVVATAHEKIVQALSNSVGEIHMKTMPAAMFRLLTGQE

T10: DLG3_2, Q92796
T10 sequence (Q92796 221-321, limits assumed, looked up): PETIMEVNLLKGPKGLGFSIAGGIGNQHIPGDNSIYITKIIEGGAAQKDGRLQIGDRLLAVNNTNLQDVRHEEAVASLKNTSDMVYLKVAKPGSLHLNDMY

T11: DFNB31_2, Q9P202
T11 sequence (Q9P202 274-371, limits assumed, looked up): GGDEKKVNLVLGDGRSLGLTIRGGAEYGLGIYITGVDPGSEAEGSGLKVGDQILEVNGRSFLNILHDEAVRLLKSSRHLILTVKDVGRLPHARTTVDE


Columns and labels:
Assay in all cases: holdup assay
Set-up in all cases: key: below the threshold = too weak to quantify, mostly under pKd 3.1 to 4
Conditions in all cases: plain residues with an end cap or a label only (N-terminal biotin on a linker: ado-ado)
PDZD7_3, Q9H5P4 = target: T1, PDZD7_3, Q9H5P4
Inadl_8, Q8NI35 = target: Inadl_8, Q8NI35
Sequence of Inadl_8, Q8NI35 (Q8NI35 1425-1530): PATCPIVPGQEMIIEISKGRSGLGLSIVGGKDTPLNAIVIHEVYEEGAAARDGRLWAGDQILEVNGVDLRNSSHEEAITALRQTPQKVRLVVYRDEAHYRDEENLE

MAGI3_2, Q5TCQ9 = target: MAGI3_2, Q5TCQ9
Sequence of MAGI3_2, Q5TCQ9 (Q5TCQ9 398-503): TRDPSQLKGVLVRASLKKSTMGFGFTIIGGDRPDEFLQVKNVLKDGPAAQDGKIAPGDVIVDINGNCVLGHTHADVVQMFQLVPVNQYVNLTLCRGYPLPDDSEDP

SHANK1, Q9Y566 = target: T2, SHANK1, Q9Y566
CARD11, Q9BXL7 = target: T3, CARD11, Q9BXL7
LNX2_2, Q8N448 = target: T4, LNX2_2, Q8N448
GRIP2_4, Q9C0E4 = target: GRIP2_4, Q9C0E4
Sequence of GRIP2_4, Q9C0E4 (Q9C0E4 446-548): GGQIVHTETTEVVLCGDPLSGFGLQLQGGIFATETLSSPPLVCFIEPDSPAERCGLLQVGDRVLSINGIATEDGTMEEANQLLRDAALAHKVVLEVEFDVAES

MPP2, Q14168 = target: T5, MPP2, Q14168
PTPN3, P26045 = target: PTPN3, P26045
Sequence of PTPN3, P26045 (P26045 505-587): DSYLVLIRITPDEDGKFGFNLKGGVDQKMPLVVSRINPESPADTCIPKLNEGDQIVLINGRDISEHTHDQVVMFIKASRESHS

MAGI2_4, Q86UL8 = target: MAGI2_4, Q86UL8
Sequence of MAGI2_4, Q86UL8 (Q86UL8 772-865): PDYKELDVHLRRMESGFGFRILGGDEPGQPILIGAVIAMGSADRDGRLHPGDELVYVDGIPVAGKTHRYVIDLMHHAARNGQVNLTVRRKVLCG

LDB3, O75112 = target: LDB3, O75112
Sequence of LDB3, O75112 (O75112 1-94): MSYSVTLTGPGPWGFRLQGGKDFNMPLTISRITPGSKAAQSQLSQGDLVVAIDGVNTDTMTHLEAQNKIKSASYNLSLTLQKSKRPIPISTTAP

GRIP2_5, Q9C0E4 = target: GRIP2_5, Q9C0E4
Sequence of GRIP2_5, Q9C0E4 (Q9C0E4 544-642): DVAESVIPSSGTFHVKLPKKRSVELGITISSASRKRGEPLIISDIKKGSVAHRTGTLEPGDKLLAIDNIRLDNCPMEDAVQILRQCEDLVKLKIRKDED

MAGI2_6, Q86UL8 = target: MAGI2_6, Q86UL8
Sequence of MAGI2_6, Q86UL8 (Q86UL8 1141-1229): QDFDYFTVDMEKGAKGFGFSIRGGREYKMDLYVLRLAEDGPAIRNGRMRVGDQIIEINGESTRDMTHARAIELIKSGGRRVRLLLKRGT

MPDZ_12, O75970 = target: T6, MPDZ_12, O75970
DLG3_3, Q92796 = target: T7, DLG3_3, Q92796
GRIP2_3, Q9C0E4 = target: GRIP2_3, Q9C0E4
Sequence of GRIP2_3, Q9C0E4 (Q9C0E4 238-339): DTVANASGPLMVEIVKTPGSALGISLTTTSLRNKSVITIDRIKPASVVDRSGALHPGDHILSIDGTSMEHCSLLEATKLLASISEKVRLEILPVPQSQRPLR

IL16_3, Q14005 = target: IL16_3, Q14005
Sequence of IL16_3, Q14005 (Q14005 1107-1207): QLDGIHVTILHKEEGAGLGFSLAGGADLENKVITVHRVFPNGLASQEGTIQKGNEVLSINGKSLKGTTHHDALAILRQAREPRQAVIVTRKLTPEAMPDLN

CASK, O14936 = target: CASK, O14936
Sequence of CASK, O14936 (O14936 487-570): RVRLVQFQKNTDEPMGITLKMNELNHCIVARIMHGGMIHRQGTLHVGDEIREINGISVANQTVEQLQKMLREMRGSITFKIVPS

TJP1_3, Q07157 = target: TJP1_3, Q07157
Sequence of TJP1_3, Q07157 (Q07157 416-512): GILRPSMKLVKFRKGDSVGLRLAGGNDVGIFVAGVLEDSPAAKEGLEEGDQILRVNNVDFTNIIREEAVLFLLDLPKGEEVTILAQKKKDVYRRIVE

Inadl_1, Q8NI35 = target: Inadl_1, Q8NI35
Sequence of Inadl_1, Q8NI35 (Q8NI35 113-229): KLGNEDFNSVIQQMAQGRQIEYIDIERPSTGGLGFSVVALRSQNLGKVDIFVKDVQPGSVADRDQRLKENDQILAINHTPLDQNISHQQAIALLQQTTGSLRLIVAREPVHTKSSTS

FRMPD2_3, Q68DX3 = target: FRMPD2_3, Q68DX3
Sequence of FRMPD2_3, Q68DX3 (Q68DX3 1073-1166): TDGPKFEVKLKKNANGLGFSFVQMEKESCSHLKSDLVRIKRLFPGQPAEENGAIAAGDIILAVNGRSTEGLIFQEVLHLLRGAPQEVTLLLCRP

TJP3_3, O95049 = target: T8, TJP3_3, O95049
APBA2_2, Q99767 = target: T9, APBA2_2, Q99767
DLG4_1, P78352 = target: DLG4_1, P78352
Sequence of DLG4_1, P78352 (P78352 62-152): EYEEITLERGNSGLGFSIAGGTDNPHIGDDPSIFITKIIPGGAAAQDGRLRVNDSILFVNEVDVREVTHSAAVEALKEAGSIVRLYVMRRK

DLG3_2, Q92796 = target: T10, DLG3_2, Q92796
GRIP2_6, Q9C0E4 = target: GRIP2_6, Q9C0E4
Sequence of GRIP2_6, Q9C0E4 (Q9C0E4 648-740): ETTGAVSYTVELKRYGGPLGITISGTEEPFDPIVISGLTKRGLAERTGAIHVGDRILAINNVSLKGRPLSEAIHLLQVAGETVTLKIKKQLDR

LIMK2, P53671 = target: LIMK2, P53671
Sequence of LIMK2, P53671 (P53671 143-248): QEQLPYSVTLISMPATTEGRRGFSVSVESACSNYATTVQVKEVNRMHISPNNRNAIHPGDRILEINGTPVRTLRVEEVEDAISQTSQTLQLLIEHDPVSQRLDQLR

DFNB31_2, Q9P202 = target: T11, DFNB31_2, Q9P202

Binder	pKd (PDZD7_3, Q9H5P4)	pKd (Inadl_8, Q8NI35)	pKd (MAGI3_2, Q5TCQ9)	pKd (SHANK1, Q9Y566)	pKd (CARD11, Q9BXL7)	pKd (LNX2_2, Q8N448)	pKd (GRIP2_4, Q9C0E4)	pKd (MPP2, Q14168)	pKd (PTPN3, P26045)	pKd (MAGI2_4, Q86UL8)	pKd (LDB3, O75112)	pKd (GRIP2_5, Q9C0E4)	pKd (MAGI2_6, Q86UL8)	pKd (MPDZ_12, O75970)	pKd (DLG3_3, Q92796)	pKd (GRIP2_3, Q9C0E4)	pKd (IL16_3, Q14005)	pKd (CASK, O14936)	pKd (TJP1_3, Q07157)	pKd (Inadl_1, Q8NI35)	further results
NHSSSPETTA [TRMT13, Q9NUP7]	below the threshold	below the threshold	below the threshold	below the threshold	below the threshold	below the threshold	below the threshold	below the threshold	3.88	below the threshold	below the threshold	below the threshold	below the threshold	below the threshold	below the threshold	below the threshold	below the threshold	below the threshold	below the threshold	below the threshold	pKd (FRMPD2_3, Q68DX3): below the threshold; pKd (TJP3_3, O95049): below the threshold; pKd (APBA2_2, Q99767): below the threshold; pKd (DLG4_1, P78352): below the threshold; pKd (DLG3_2, Q92796): 4.09; pKd (GRIP2_6, Q9C0E4): below the threshold; pKd (LIMK2, P53671): below the threshold; pKd (DFNB31_2, Q9P202): below the threshold
SAKVRTVTSV [RASL11B, Q9BPW5]	4.68	4.43	5.74	below the threshold	below the threshold	4.9	below the threshold	below the threshold	4.6	4.19	below the threshold	below the threshold	3.85	below the threshold	4.89	below the threshold	below the threshold	below the threshold	below the threshold	below the threshold	pKd (FRMPD2_3, Q68DX3): below the threshold; pKd (TJP3_3, O95049): below the threshold; pKd (APBA2_2, Q99767): below the threshold; pKd (DLG4_1, P78352): 4.65; pKd (DLG3_2, Q92796): 4.78; pKd (GRIP2_6, Q9C0E4): 3.63; pKd (LIMK2, P53671): below the threshold; pKd (DFNB31_2, Q9P202): below the threshold
PAPSSGKDYV [CLDN1, O95832]	below the threshold	3.92	below the threshold	below the threshold	below the threshold	4.07	below the threshold	below the threshold	below the threshold	3.54	below the threshold	below the threshold	below the threshold	below the threshold	below the threshold	below the threshold	below the threshold	below the threshold	below the threshold	below the threshold	pKd (FRMPD2_3, Q68DX3): below the threshold; pKd (TJP3_3, O95049): 3.55; pKd (APBA2_2, Q99767): below the threshold; pKd (DLG4_1, P78352): 3.6; pKd (DLG3_2, Q92796): below the threshold; pKd (GRIP2_6, Q9C0E4): below the threshold; pKd (LIMK2, P53671): below the threshold; pKd (DFNB31_2, Q9P202): below the threshold
PDGQCTVTEV [RNF146, Q9NTX7]	5.09	4.13	4.21	below the threshold	below the threshold	5.08	below the threshold	below the threshold	4.99	4.38	below the threshold	below the threshold	4.71	below the threshold	below the threshold	below the threshold	below the threshold	below the threshold	below the threshold	below the threshold	pKd (FRMPD2_3, Q68DX3): below the threshold; pKd (TJP3_3, O95049): below the threshold; pKd (APBA2_2, Q99767): below the threshold; pKd (DLG4_1, P78352): 4.6; pKd (DLG3_2, Q92796): 4.98; pKd (GRIP2_6, Q9C0E4): below the threshold; pKd (LIMK2, P53671): below the threshold; pKd (DFNB31_2, Q9P202): below the threshold
